Experimental data: PMC2192655 (The Journal of Cell Biology, 2000)

B1: HA-Snc2p (COOH-terminally triple-HA-tagged Sncp) (natural protein)
chain: MSSSVPYDPYVPPEESNSGANPNSQNKTAALRQEIDDTVGIMRDNINKVAERGERLTSIEDKADNLAISAQGFKRGANRVRKQMWWKDLKMRMCLFLVVIILLVVIIVPIVVHFS

Assays:
[1] = target: Sncp (Snc proteins, secretory vesicle SNARE) (yeast (endogenous in the yeast strains of Table 1)) (UniProt P31109); assay: co-IP
Tlg2p = target: T1, Tlg2p (yeast (endogenous in the yeast strains), UniProt Q08144 1-397); assay: co-IP
T1 sequence: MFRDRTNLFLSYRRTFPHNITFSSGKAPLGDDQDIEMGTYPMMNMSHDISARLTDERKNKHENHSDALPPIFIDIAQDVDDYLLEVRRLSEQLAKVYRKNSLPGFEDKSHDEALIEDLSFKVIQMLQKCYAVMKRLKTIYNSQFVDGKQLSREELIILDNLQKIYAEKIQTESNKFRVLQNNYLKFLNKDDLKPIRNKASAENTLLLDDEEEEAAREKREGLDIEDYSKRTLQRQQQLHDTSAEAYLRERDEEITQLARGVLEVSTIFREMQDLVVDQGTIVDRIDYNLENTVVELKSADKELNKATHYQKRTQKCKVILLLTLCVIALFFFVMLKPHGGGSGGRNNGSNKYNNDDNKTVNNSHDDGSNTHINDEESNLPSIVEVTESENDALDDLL

Sncp (Snc proteins, secretory vesicle SNARE) (yeast (endogenous in the yeast strains of Table 1)), sequence (P31109 whole entry): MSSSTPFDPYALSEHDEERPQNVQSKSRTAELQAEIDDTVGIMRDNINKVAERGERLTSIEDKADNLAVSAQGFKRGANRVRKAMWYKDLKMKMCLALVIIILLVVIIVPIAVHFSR

Molecule	percent of total Ssop coprecipitating with Sncp [1] [%]	fold less bound to Tlg2p than to Ssop (Tlg2p) [fold]
Ssop (Sso proteins, plasma membrane SNARE) (from UniProt P32867 1-290) (natural protein)	0.7	–
B1	–	10
